Patent US20080213909A1, “PHARMACEUTICAL PACKAGING ASSAY” (priority 2006, published 2008)

Columns and labels:
[1] = Direct vial assay: adsorption of Cy3-labeled fibrinogen to coated Type 1 glass surfaces (fluorescence); type: physicochemical; conditions: 5 μg/mL in 50 mM phosphate buffer pH 7, 4° C., 72 hours; four surfaces (FIG. 3)
Text: (§1) One aspect of the invention is an assay method for the determination of drug adsorption to commercially available pharmaceutical packaging surfaces and test surfaces under development. Pharmaceutical packaging surface materials include glass, polymers (polyethylene, polypropylene, polycarbonate, polyterphalate, cylic olefin copolymer, etc.), elastomers (rubbers, etc.), metals and alloys for vials, syringes, ampoules, cartridges, stoppers, etc. and components thereof. The assay consists of the following steps: • 1) Drug of interest is labeled with a fluorescent chemical group and degree of incorporation of dye is quantified. • 2) Calibration curves of various concentrations of the fluorescently labeled biomolecules are generated. • 3) Fluorescently labeled drug solution is exposed to the pharmaceutical packaging surface of interest for a length of time ranging from minutes to years. • 4) Fluorescently labeled drug solution is removed from pharmaceutical packaging surface of interest. This solution can be analyzed to determine the amount of drugs remaining in the solution. […] Aliquots of the solution, or aliquots of the solution first concentrated, are then applied to a sample holding surface for determination of biomolecular adsorption via fluorescence measurements. […]

[2] = supplier material data; cited from earlier work
[3] = Direct vial assay: adsorption of labeled insulin to various coated surfaces (fluorescence); type: physicochemical; conditions: 10 μg/mL in 50 mM phosphate buffer pH 7, 4° C., 72 hours; nine surfaces (FIG. 6)
Text: as §1

Substance	protein adsorption to sample surfaces [1]	pI [2]	protein adsorption to sample surfaces, normalized to Type 1 vial [3]
fibrinogen	quantifiable difference in protein adsorption between various sample surfaces	5.4	–
insulin: Porcine insulin from Sigma (15523), test biomolecule	–	7.0	quantifiable difference in protein adsorption between various sample surfaces
